First the molecules themselves.
B1: Azoarcus group I ribozyme (parent)
chain: GUGCCUUGCGCCGGGAAACCACGCAAGGGAUGGUGUCAAAUUCGGCGAAACCUAAGCGCCCGCCCGGGCGUAUGGCAACGCCGAGCCAAGCUUCGGCGCCUGCGCCGAUGAAGGUGUAGAGACUAGACGGCACCCACCUAAGGCAAACGCUAUGGUGAAGGCAUAGUCCAGGGAGUGGCGAAAGUCACACAAACCGG

In the series the parent is B1. Nature of the series: reverse-splicing fitness (ratio to wild type); higher = more active; in vitro selection; Mg2+ level not given. In outline: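 An in vitro group I ribozyme library with randomized positions was T7-transcribed and gel-purified. In triplicate, 10 pmol RNA in EPPS pH 7.5 was reacted with 50 pmoles of a 30-nt RNA substrate for 1 h at 37 °C across several added MgCl2 levels (1–48 mM), then stopped with EDTA. Products were reverse transcribed from a substrate-complementary primer, PCR-amplified and sequenced (HiSeq 4000). Fitness is a variant's read proportion after selection over that before, normalised to wild type.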
On to C82U A120G C150A U176G, for which the reverse-splicing fitness is 0.00583.
Then C82U A120G C150A U176A, with 0.0116.
Consider C82U A120G C150A U176C, for which the reverse-splicing fitness worked out at 0.0166.
Then C82U A120C C150U U176G, with 0.00855; and C82U A120C C150U U176A, with 0.0291; and C82U A120C C150U U176C, with 0.0444.
Then C82U A120C A145U C169U, with 0.0193; and C82U A120C A145U C169G, with 0.00567; and C82U A120C A145U C169A, with 0.00492.
Then C82U A120C C150U C169G, with 0.00713.
Consider C82U A120C C150U C169U, for which the reverse-splicing fitness is 0.0165.
Then C82U A120C C150U C169A, with 0.00876.
Turning to C82U A120C C150U C169A U176A, the reverse-splicing fitness was 0.0158.
Then C82U A120C C150U C169A U176G, with 0.00426; and C82U A120C C150U C169A U176C, with 0.0107.
Then C82U A120C C150G C169U U176G, with 0.00422.
C82U A120C C150G C169U U176C: the reverse-splicing fitness turned out to be 0.0136.
Then C82U A120C C150G C169U U176A, with 0.00844; and C82U A120G C150G U176C, with 0.00821.
Then C82U A120G C150G U176G, with 0.00278.
Then C82U A120G C150G U176A, with 0.00577; and C82U A120G A145U C150A C169G U176A, with 0.0114; and C82U A120G A145U C150A C169G U176G, with 0.0037.
Take C82U A120G A145U C150A C169G U176C: the reverse-splicing fitness was 0.0133.
Then C82U A120G A145U C169U U176A, with 0.0216; and C82U A120G A145U C169U U176C, with 0.0159.
Take C82U A120G A145U C169U U176G: the reverse-splicing fitness came to 0.00326.
With C82U A120G A145U C150G, the reverse-splicing fitness is 0.00697.
As for C82U A120G A145U C150U, the reverse-splicing fitness amounted to 0.0176.
Turning to C82U A120G A145U C150A, the reverse-splicing fitness came out at 0.00772.
Then C82U A120G A145G C150U C169U U176G, with 0.00441; and C82U A120G A145G C150U C169U U176C, with 0.0164.
Then C82U A120G A145G C150U C169U U176A, with 0.0207; and C82U A120G A145C C150G C169G U176A, with 0.00838; and C82U A120G A145C C150G C169G U176G, with 0.00336.
Then C82U A120G A145C C150G C169G U176C, with 0.00713; and C82U A120C C150U, with 0.0835.
For the variant C82U A120C C150G, the reverse-splicing fitness was 0.0174.
Turning to C82U A120C C150A, the reverse-splicing fitness came out at 0.0251.
Then C82U A120G A145U C150U C169G U176C, with 0.0139; and C82U A120G A145U C150U C169G U176A, with 0.0116; and C82U A120G A145U C150U C169G U176G, with 0.00343.
On to C82U A120G A145C C150A, for which the reverse-splicing fitness came to 0.00664.
Then C82U A120G A145C C150U, with 0.0102.
Then C82U A120G A145C C150G, with 0.00804; and C82U A120G A145U C150A C169A U176A, with 0.0112; and C82U A120G A145U C150A C169A U176G, with 0.00335.
Take C82U A120G A145U C150A C169A U176C: the reverse-splicing fitness is 0.00898.
C82U A120G C150A C169A U176G: the reverse-splicing fitness came out at 0.00477.
For the variant C82U A120G C150A C169A U176C, the reverse-splicing fitness came out at 0.0164.
As for C82U A120G C150A C169A U176A, the reverse-splicing fitness was found to be 0.0174.
Then C82U A120G, with 0.0259; and C82U A120G A145G C150U U176G, with 0.00573.
For the variant C82U A120G A145G C150U U176C, the reverse-splicing fitness is 0.019.
Then C82U A120G A145G C150U U176A, with 0.00967.
Then C82U A120C C169G, with 0.00705.
Then C82U A120C C169A, with 0.00809; and C82U A120C C169U, with 0.0213.
Consider C82U A120G A145C C150U C169G U176G, for which the reverse-splicing fitness turned out to be 0.0041.
C82U A120G A145C C150U C169G U176A: the reverse-splicing fitness was found to be 0.0197.
Then C82U A120G A145C C150U C169G U176C, with 0.0111; and C82U A120G A145G C169U, with 0.0197.
C82U A120G A145G C169G: the reverse-splicing fitness came to 0.0254.
Then C82U A120G A145G C169A, with 0.018.
Then C82U A120G C150G C169A U176C, with 0.00979; and C82U A120G C150G C169A U176G, with 0.00547; and C82U A120G C150G C169A U176A, with 0.00927.
Then C82U A120G A145C U176C, with 0.0121; and C82U A120G A145C U176A, with 0.0109.
In the case of C82U A120G A145C U176G, the reverse-splicing fitness amounted to 0.00356.
Take C82U A120G C150U C169U U176A: the reverse-splicing fitness was determined as 0.0237.
For the variant C82U A120G C150U C169U U176C, the reverse-splicing fitness was determined as 0.0185.
As to C82U A120G C150U C169U U176G, the reverse-splicing fitness stood at 0.00509.
On to C82U A120G A145C C150U C169A U176C, for which the reverse-splicing fitness is 0.00527.
Then C82U A120G A145C C150U C169A U176A, with 0.00991.
Turning to C82U A120G A145C C150U C169A U176G, the reverse-splicing fitness came to 0.00346.
In the case of C82U A120C A145U C169U U176G, the reverse-splicing fitness is 0.00405.
Then C82U A120C A145U C169U U176C, with 0.0155.
Then C82U A120C A145U C169U U176A, with 0.0169; and C82U A120C A145U C150U C169U, with 0.0166.
On to C82U A120C A145U C150U C169G, for which the reverse-splicing fitness was found to be 0.00708.
For C82U A120C C150U C169U U176A, the reverse-splicing fitness was determined as 0.0176.
For the variant C82U A120C C150U C169U U176G, the reverse-splicing fitness is 0.00448.
